What all share (test): SEC
A general note: Size exclusion chromatography separates by hydrodynamic size, large species first.

Assay [1] addresses GST-tagged A. carterae eIF4E-1a (not stated | Amphidinium carterae).
Assay [2] deals with GST-tagged A. carterae eIF4E-1d1 (not stated | Amphidinium carterae).
Assay [3] has as its target GST-tagged A. carterae eIF4E-2a (not stated | Amphidinium carterae).
The target in assay [4] is GST-tagged mouse eIF4E-1 (not stated | mouse).

For the substance GST-tagged A. carterae eIF4E-1a, the stoichiometry N in assay [1] was 2. GST-tagged A. carterae eIF4E-1d1 yielded a stoichiometry N in assay [2] of 2. Consider GST-tagged A. carterae eIF4E-2a, for which, in assay [3], the stoichiometry N was determined as 2. In turn, GST-tagged mouse eIF4E-1 displayed a stoichiometry N in assay [4] of 2.

The stoichiometry N is a count of units in the complex or per binding partner.

The record behind these values is paper doi:10.1101/2024.02.20.581179.
